The term Kd denotes the equilibrium constant for the complex coming apart. A high value points to weaker binding.

The series deals with T1, PUF4 RNA-binding domain (Saccharomyces cerevisiae, UniProt P25339 537-888).
T1 sequence: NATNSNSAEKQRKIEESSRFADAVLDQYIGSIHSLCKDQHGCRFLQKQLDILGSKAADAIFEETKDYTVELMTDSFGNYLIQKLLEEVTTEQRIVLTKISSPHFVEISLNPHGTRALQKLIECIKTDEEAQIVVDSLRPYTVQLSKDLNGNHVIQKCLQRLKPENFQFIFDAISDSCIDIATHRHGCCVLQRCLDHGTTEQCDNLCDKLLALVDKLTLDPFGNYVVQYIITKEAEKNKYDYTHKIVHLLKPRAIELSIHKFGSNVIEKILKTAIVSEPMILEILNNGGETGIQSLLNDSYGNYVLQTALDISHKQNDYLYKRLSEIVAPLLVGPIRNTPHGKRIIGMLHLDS
Nature of the series: Mg; RNA-MaP; 20 mM Na-HEPES pH 7.4, 30 mM KOAc, 0.75 mM MgCl2, 0.1% Tween-20, 5% glycerol, 0.1 mg/mL BSA, 2 mM DTT; 25 C; 0.0125-409.6 nM protein. The following applies: tags: N-His6-TEV cleaved; C-SNAP kept, Cy3B-labelled; label: tethered on chip by stalled RNA polymerase.

B1: Ib_S2_P3E.1_K3.1_C3.1_H3.1_[A4G]_A3.1_[A6C]_F3.1_T3.1 (ssRNA)
RNA: UUUGAUUAAUAUGAUAUCGUUCUUUCUUGUGUCUAUUCUUUCUCGAUAUCAUAUUAAUCUUU
Turning to B1, binding was put at a Kd of 107 nM.

B2: Ib_S2_P3E.1_K3.1_C3.1_H3.1_[A4C]_A3.1_[A6G]_F3.1_T3.1 (ssRNA)
RNA: UUUGAUUAAUAUGAUAUCGUUCUUUCUUGUCUGUAUUCUUUCUCGAUAUCAUAUUAAUCUUU
Molecule B2 showed a Kd of 40.8 nM.

B3: Ib_S2_P3E.1_K3.1_C3.1_H3.1_[A4C]_A3.1_[A6T]_F3.1_T3.1 (ssRNA)
RNA: UUUGAUUAAUAUGAUAUCGUUCUUUCUUGUCUUUAUUCUUUCUCGAUAUCAUAUUAAUCUUU
Regarding B3, the Kd was 1200 nM.

B4: Ib_S2_P3E.1_K3.1_C3.1_H3.1_[A4G]_A3.1_[A6T]_F3.1_T3.1 (ssRNA)
RNA: UUUGAUUAAUAUGAUAUCGUUCUUUCUUGUGUUUAUUCUUUCUCGAUAUCAUAUUAAUCUUU
As to B4, binding was put at a Kd of 37 nM.

B5: Ie_S4_P5E.1_K5.1_C5.1_H5.1_[+4CCC]_A5.1_F5.1_T5.1 (ssRNA)
RNA: UUUGACAACUGAUCGUUCUUUCUUGUACCCUUAUUAUUCUUUCUCGAUCAGUUGUCUUU
Turning to B5, the Kd worked out at 3.18 nM.

B6: Ie_S4_P5E.1_K5.1_C5.1_H5.1_A5.1_[+5TTT]_F5.1_T5.1 (ssRNA)
RNA: UUUGACAACUGAUCGUUCUUUCUUGUAUUUUUAUUAUUCUUUCUCGAUCAGUUGUCUUU
In turn, B6 had a Kd of 2.85 nM.

B7: Ie_S4_P5E.1_K5.1_C5.1_H5.1_A5.1_[+6CCC]_F5.1_T5.1 (ssRNA)
RNA: UUUGACAACUGAUCGUUCUUUCUUGUAUUCCCAUUAUUCUUUCUCGAUCAGUUGUCUUU
B7 had a Kd of 60.8 nM.

B8: Ie_S4_P5E.1_K5.1_C5.1_H5.1_[+4CTT]_A5.1_F5.1_T5.1 (ssRNA)
RNA: UUUGACAACUGAUCGUUCUUUCUUGUACUUUUAUUAUUCUUUCUCGAUCAGUUGUCUUU
Molecule B8 displayed a dissociation constant (Kd) of 1.26 nM.

B9: Ie_S4_P5E.1_K5.1_C5.1_H5.1_A5.1_[+7TTT]_F5.1_T5.1 (ssRNA)
RNA: UUUGACAACUGAUCGUUCUUUCUUGUAUUAUUUUUAUUCUUUCUCGAUCAGUUGUCUUU
B9 registered a Kd of 12.5 nM.

B10: Ie_S4_P5E.1_K5.1_C5.1_H5.1_A5.1_[+7CCC]_F5.1_T5.1 (ssRNA)
RNA: UUUGACAACUGAUCGUUCUUUCUUGUAUUACCCUUAUUCUUUCUCGAUCAGUUGUCUUU
As for B10, the affinity, expressed as Kd, was 85 nM.

B11: Ie_S4_P5E.1_K5.1_C5.1_H5.1_[+4TCC]_A5.1_F5.1_T5.1 (ssRNA)
RNA: UUUGACAACUGAUCGUUCUUUCUUGUAUCCUUAUUAUUCUUUCUCGAUCAGUUGUCUUU
B11: the Kd is 6.26 nM.

B12: Ie_S4_P5E.1_K5.1_C5.1_H5.1_A5.1_[+6TTC]_F5.1_T5.1 (ssRNA)
RNA: UUUGACAACUGAUCGUUCUUUCUUGUAUUUUCAUUAUUCUUUCUCGAUCAGUUGUCUUU
Molecule B12 came in with a Kd of 32 nM.

B13: Ie_S4_P5E.1_K5.1_C5.1_H5.1_A5.1_[+7TCT]_F5.1_T5.1 (ssRNA)
RNA: UUUGACAACUGAUCGUUCUUUCUUGUAUUAUCUUUAUUCUUUCUCGAUCAGUUGUCUUU
In turn, B13 displayed a Kd of 24.9 nM.

B14: Ie_S4_P5E.1_K5.1_C5.1_H5.1_A5.1_F5.1_[+8TTC]_T5.1 (ssRNA)
RNA: UUUGACAACUGAUCGUUCUUUCUUGUAUUAUUUCUAUUCUUUCUCGAUCAGUUGUCUUU
With B14, the affinity, expressed as Kd, was 12.3 nM.

B15: Ie_S4_P5E.1_K5.1_C5.1_H5.1_A5.1_[+7CCT]_F5.1_T5.1 (ssRNA)
RNA: UUUGACAACUGAUCGUUCUUUCUUGUAUUACCUUUAUUCUUUCUCGAUCAGUUGUCUUU
B15 displayed a Kd of 66.5 nM.

B16: Ie_S4_P5E.1_K5.1_C5.1_H5.1_[+4CTC]_A5.1_F5.1_T5.1 (ssRNA)
RNA: UUUGACAACUGAUCGUUCUUUCUUGUACUCUUAUUAUUCUUUCUCGAUCAGUUGUCUUU
With B16, the Kd is 2.91 nM.

B17: Ie_S4_P5E.1_K5.1_C5.1_H5.1_A5.1_[+7CTT]_F5.1_T5.1 (ssRNA)
RNA: UUUGACAACUGAUCGUUCUUUCUUGUAUUACUUUUAUUCUUUCUCGAUCAGUUGUCUUU
In the case of B17, the Kd came to 26.8 nM.

B18: Ie_S4_P5E.1_K5.1_C5.1_H5.1_A5.1_[+6C]_F5.1_T5.1 (ssRNA)
RNA: UUUGACAACUGAUCGUUCUUUCUUGUAUUCAUUAUUCUUUCUCGAUCAGUUGUCUUU
Consider B18, for which the Kd was 13.4 nM.

B19: Ie_S4_P5E.1_K5.1_C5.1_H5.1_A5.1_F5.1_[+8C]_T5.1 (ssRNA)
RNA: UUUGACAACUGAUCGUUCUUUCUUGUAUUAUCUAUUCUUUCUCGAUCAGUUGUCUUU
With B19, binding was put at a Kd of 17.1 nM.

B20: Ie_S4_P5E.1_K5.1_C5.1_H5.1_[+4CC]_A5.1_F5.1_T5.1 (ssRNA)
RNA: UUUGACAACUGAUCGUUCUUUCUUGUACCUUAUUAUUCUUUCUCGAUCAGUUGUCUUU
B20 had a Kd of 1.43 nM.

B21: Ie_S4_P5E.1_K5.1_C5.1_H5.1_[+4CT]_A5.1_F5.1_T5.1 (ssRNA)
RNA: UUUGACAACUGAUCGUUCUUUCUUGUACUUUAUUAUUCUUUCUCGAUCAGUUGUCUUU
Turning to B21, binding was put at a Kd of 0.642 nM.

B22: Ie_S4_P5E.1_K5.1_C5.1_H5.1_A5.1_F5.1_[+8CT]_T5.1 (ssRNA)
RNA: UUUGACAACUGAUCGUUCUUUCUUGUAUUAUCUUAUUCUUUCUCGAUCAGUUGUCUUU
As for B22, the Kd came to 16.1 nM.

B23: Ie_S4_P5E.1_K5.1_C5.1_H5.1_A5.1_F5.1_[+8CC]_T5.1 (ssRNA)
RNA: UUUGACAACUGAUCGUUCUUUCUUGUAUUAUCCUAUUCUUUCUCGAUCAGUUGUCUUU
Take B23: the Kd was 21 nM.

B24: Ie_S4_P5E.1_K5.1_C5.1_H5.1_[+3CTCT]_A5.1_F5.1_T5.1 (ssRNA)
RNA: UUUGACAACUGAUCGUUCUUUCUUGUCUCUAUUAUUAUUCUUUCUCGAUCAGUUGUCUUU
B24: binding was put at a Kd of 56.3 nM.

B25: Ie_S4_P5E.1_K5.1_C5.1_H5.1_[+4CCCT]_A5.1_F5.1_T5.1 (ssRNA)
RNA: UUUGACAACUGAUCGUUCUUUCUUGUACCCUUUAUUAUUCUUUCUCGAUCAGUUGUCUUU
With B25, the equilibrium dissociation constant (Kd) came out at 6.05 nM.

B26: Ie_S4_P5E.1_K5.1_C5.1_H5.1_[+4CCTC]_A5.1_F5.1_T5.1 (ssRNA)
RNA: UUUGACAACUGAUCGUUCUUUCUUGUACCUCUUAUUAUUCUUUCUCGAUCAGUUGUCUUU
On to B26, for which binding was put at a Kd of 7.54 nM.

B27: Ie_S4_P5E.1_K5.1_C5.1_H5.1_A5.1_[+7CTCT]_F5.1_T5.1 (ssRNA)
RNA: UUUGACAACUGAUCGUUCUUUCUUGUAUUACUCUUUAUUCUUUCUCGAUCAGUUGUCUUU
As to B27, binding was put at a Kd of 65.1 nM.

B28: Ie_S4_P5E.1_K5.1_C5.1_H5.1_[+3TTCC]_A5.1_F5.1_T5.1 (ssRNA)
RNA: UUUGACAACUGAUCGUUCUUUCUUGUUUCCAUUAUUAUUCUUUCUCGAUCAGUUGUCUUU
In the case of B28, the Kd amounted to 44.8 nM.

B29: Ie_S4_P5E.1_K5.1_C5.1_H5.1_A5.1_[+6TTCC]_F5.1_T5.1 (ssRNA)
RNA: UUUGACAACUGAUCGUUCUUUCUUGUAUUUUCCAUUAUUCUUUCUCGAUCAGUUGUCUUU
B29 came in with a Kd of 19.2 nM.

B30: Ie_S4_P5E.1_K5.1_C5.1_H5.1_[+4TTCC]_A5.1_F5.1_T5.1 (ssRNA)
RNA: UUUGACAACUGAUCGUUCUUUCUUGUAUUCCUUAUUAUUCUUUCUCGAUCAGUUGUCUUU
On to B30, for which the Kd worked out at 9.55 nM.

B31: Ie_S4_P5E.1_K5.1_C5.1_H5.1_[+3TCTC]_A5.1_F5.1_T5.1 (ssRNA)
RNA: UUUGACAACUGAUCGUUCUUUCUUGUUCUCAUUAUUAUUCUUUCUCGAUCAGUUGUCUUU
For the molecule B31, the Kd stood at 40.3 nM.

B32: Ie_S4_P5E.1_K5.1_C5.1_H5.1_A5.1_F5.1_[+8CTCT]_T5.1 (ssRNA)
RNA: UUUGACAACUGAUCGUUCUUUCUUGUAUUAUCUCUUAUUCUUUCUCGAUCAGUUGUCUUU
For B32, the affinity, expressed as Kd, was 27.8 nM.

B33: Ie_S4_P5E.1_K5.1_C5.1_H5.1_A5.1_[+5CCCT]_F5.1_T5.1 (ssRNA)
RNA: UUUGACAACUGAUCGUUCUUUCUUGUAUCCCUUAUUAUUCUUUCUCGAUCAGUUGUCUUU
B33 showed a Kd of 16 nM.

B34: Ie_S4_P5E.1_K5.1_C5.1_H5.1_A5.1_F5.1_[+8TTCC]_T5.1 (ssRNA)
RNA: UUUGACAACUGAUCGUUCUUUCUUGUAUUAUUUCCUAUUCUUUCUCGAUCAGUUGUCUUU
Consider B34, for which binding was put at a Kd of 21.1 nM.

B35: Ie_S4_P5E.1_K5.1_C5.1_H5.1_A5.1_F5.1_[+8TCTC]_T5.1 (ssRNA)
RNA: UUUGACAACUGAUCGUUCUUUCUUGUAUUAUUCUCUAUUCUUUCUCGAUCAGUUGUCUUU
For B35, the Kd amounted to 20.1 nM.

B36: Ie_S4_P5E.1_K5.1_C5.1_H5.1_[+3CCCTT]_A5.1_F5.1_T5.1 (ssRNA)
RNA: UUUGACAACUGAUCGUUCUUUCUUGUCCCUUAUUAUUAUUCUUUCUCGAUCAGUUGUCUUU
Consider B36, for which the Kd was found to be 54.8 nM.

B37: Ie_S4_P5E.1_K5.1_C5.1_H5.1_A5.1_[+5TCTCT]_F5.1_T5.1 (ssRNA)
RNA: UUUGACAACUGAUCGUUCUUUCUUGUAUUCUCUUAUUAUUCUUUCUCGAUCAGUUGUCUUU
Turning to B37, the affinity, expressed as Kd, was 14.2 nM.

B38: Ie_S4_P5E.1_K5.1_C5.1_H5.1_[+4TTCCT]_A5.1_F5.1_T5.1 (ssRNA)
RNA: UUUGACAACUGAUCGUUCUUUCUUGUAUUCCUUUAUUAUUCUUUCUCGAUCAGUUGUCUUU
Consider B38, for which the Kd was determined as 16.5 nM.

B39: Ie_S4_P5E.1_K5.1_C5.1_H5.1_A5.1_[+5CTCTC]_F5.1_T5.1 (ssRNA)
RNA: UUUGACAACUGAUCGUUCUUUCUUGUAUCUCUCUAUUAUUCUUUCUCGAUCAGUUGUCUUU
Molecule B39 showed a Kd of 13.3 nM.

B40: Ie_S4_P5E.1_K5.1_C5.1_H5.1_[+4CCCTT]_A5.1_F5.1_T5.1 (ssRNA)
RNA: UUUGACAACUGAUCGUUCUUUCUUGUACCCUUUUAUUAUUCUUUCUCGAUCAGUUGUCUUU
In turn, B40 registered a Kd of 9.87 nM.

B41: Ie_S4_P5E.1_K5.1_C5.1_H5.1_A5.1_[+5CCCTT]_F5.1_T5.1 (ssRNA)
RNA: UUUGACAACUGAUCGUUCUUUCUUGUAUCCCUUUAUUAUUCUUUCUCGAUCAGUUGUCUUU
Regarding B41, the affinity, expressed as Kd, was 20.8 nM.

B42: Ie_S4_P5E.1_K5.1_C5.1_H5.1_A5.1_[+6CTCTC]_F5.1_T5.1 (ssRNA)
RNA: UUUGACAACUGAUCGUUCUUUCUUGUAUUCUCUCAUUAUUCUUUCUCGAUCAGUUGUCUUU
Molecule B42 displayed a Kd of 43.6 nM.

B43: Ie_S4_P5E.1_K5.1_C5.1_H5.1_A5.1_[+7CTCTC]_F5.1_T5.1 (ssRNA)
RNA: UUUGACAACUGAUCGUUCUUUCUUGUAUUACUCUCUUAUUCUUUCUCGAUCAGUUGUCUUU
In the case of B43, the affinity, expressed as Kd, was 28.7 nM.

The values above are taken from article PMC9352680, “A comprehensive thermodynamic model for RNA binding by the Saccharomyces cerevisiae Pumilio protein PUF4”.
